What was measured:
Assay in all cases: BLI
Conditions in all cases: BLI: 20 mM Tris-HCl pH 7.4, 80 mM NaCl, temperature not stated; pull-down: 20 mM Tris-HCl pH 7.5, 300 mM KCl, 0.2 mM EDTA, 0.5 mM DTT, 5 ug/ml poly(I.C) …
[1] = test system: T1, RBM45 aa 2-257 as printed, Q8IUH3-3
T1 sequence: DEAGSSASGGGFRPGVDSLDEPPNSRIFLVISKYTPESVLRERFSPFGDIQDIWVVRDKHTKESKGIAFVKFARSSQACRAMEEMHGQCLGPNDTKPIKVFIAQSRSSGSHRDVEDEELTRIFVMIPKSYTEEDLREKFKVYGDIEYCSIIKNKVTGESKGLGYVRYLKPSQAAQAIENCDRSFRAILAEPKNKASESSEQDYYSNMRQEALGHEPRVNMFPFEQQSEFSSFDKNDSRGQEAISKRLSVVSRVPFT

[2] = test system: T2, RBM45 RRM2-HOA (domain 2-HOA), Q8IUH3-3
T2 sequence: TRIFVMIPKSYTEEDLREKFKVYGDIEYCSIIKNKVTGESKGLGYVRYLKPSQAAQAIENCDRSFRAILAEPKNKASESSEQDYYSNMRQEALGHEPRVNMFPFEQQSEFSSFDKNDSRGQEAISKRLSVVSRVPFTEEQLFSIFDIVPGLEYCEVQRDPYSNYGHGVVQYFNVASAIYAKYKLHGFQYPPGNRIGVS

[3] = test system: T3, RBM45 domain 2-3, Q8IUH3-3
T3 sequence: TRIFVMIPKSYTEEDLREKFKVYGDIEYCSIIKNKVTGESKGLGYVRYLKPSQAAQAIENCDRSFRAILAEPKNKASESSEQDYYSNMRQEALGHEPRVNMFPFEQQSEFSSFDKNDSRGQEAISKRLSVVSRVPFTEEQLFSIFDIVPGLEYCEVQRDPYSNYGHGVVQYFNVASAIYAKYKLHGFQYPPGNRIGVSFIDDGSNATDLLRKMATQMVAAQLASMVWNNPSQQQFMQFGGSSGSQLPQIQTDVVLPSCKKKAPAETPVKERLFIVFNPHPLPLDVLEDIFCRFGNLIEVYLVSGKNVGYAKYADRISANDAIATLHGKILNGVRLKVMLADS

GUAAAGCUACGGGACGGU [ISE3] gave a Kd [1] of 43 nM, a Kd [2] of 21.3 nM and a Kd [3] of 21.8 nM.

Source: publication PMC7064759
